Assay results as given in publication doi:10.1101/2022.09.12.507593 (bioRxiv, 2022).

T1: OGT-TPR not fused to SUMO (aa 2-474 of ncOGT, SUMO tag removed) (human, UniProt O15294-1 2-474)
T1 sequence (looked up): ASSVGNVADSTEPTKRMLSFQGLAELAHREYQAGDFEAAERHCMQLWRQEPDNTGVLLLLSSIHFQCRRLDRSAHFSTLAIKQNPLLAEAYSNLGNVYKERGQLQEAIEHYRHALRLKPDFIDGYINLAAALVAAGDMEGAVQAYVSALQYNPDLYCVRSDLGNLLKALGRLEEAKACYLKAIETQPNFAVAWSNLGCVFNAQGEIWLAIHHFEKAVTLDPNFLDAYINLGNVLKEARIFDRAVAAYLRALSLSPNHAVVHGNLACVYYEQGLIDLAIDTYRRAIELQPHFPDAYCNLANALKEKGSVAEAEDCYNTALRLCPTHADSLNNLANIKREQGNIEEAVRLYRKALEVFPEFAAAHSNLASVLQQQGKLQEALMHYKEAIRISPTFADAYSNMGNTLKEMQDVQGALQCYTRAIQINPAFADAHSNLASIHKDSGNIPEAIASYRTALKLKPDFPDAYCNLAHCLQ

B1: WT FUS LCRN (Fused in sarcoma N-terminal low-complexity region, aa 1-214) (domain or fragment, human, UniProt P35637 1-214, looked up)
chain: MASNDYTQQATQSYGAYPTQPGQGYSQQSSQPYGQQSYSGYSQSTDTSGYGQSSYSSYGQSQNTGYGTQSTPQGYGSTGGYGSSQSSQSSYGQQSSYPGYGQQPAPSSTSGSYGSSSQSSSYGQPQSGSYSQQPSYGGQQQSYGQQQSYNPPQGYGQQNQYNSSSGGGGGGGGGGNYGQDQSSMSSGGGSGGGYGNQDQSGGGGSGGYGQQDRG

Assays:
[1] = biological target: T1, OGT-TPR not fused to SUMO (aa 2-474 of …); assay: NMR titration
[2] = biological target: B1; assay: NMR titration

Binder	binding result [1]	average peak intensity ratio (plus OGT-TPR/apo) [2]
B1	binds	
SUMO-fused TPR region of OGT (OGT-TPR, aa 2-474 of ncOGT) (domain or fragment, human, UniProt O15294-1 2-474, looked up) ASSVGNVADSTEPTKRMLSFQGLAELAHREYQAGDFEAAERHCMQLWRQEPDNTGVLLLLSSIHFQCRRLDRSAHFSTLAIKQNPLLAEAYSNLGNVYKERGQLQEAIEHYRHALRLKPDFIDGYINLAAALVAAGDMEGAVQAYVSALQYNPDLYCVRSDLGNLLKALGRLEEAKACYLKAIETQPNFAVAWSNLGCVFNAQGEIWLAIHHFEKAVTLDPNFLDAYINLGNVLKEARIFDRAVAAYLRALSLSPNHAVVHGNLACVYYEQGLIDLAIDTYRRAIELQPHFPDAYCNLANALKEKGSVAEAEDCYNTALRLCPTHADSLNNLANIKREQGNIEEAVRLYRKALEVFPEFAAAHSNLASVLQQQGKLQEALMHYKEAIRISPTFADAYSNMGNTLKEMQDVQGALQCYTRAIQINPAFADAHSNLASIHKDSGNIPEAIASYRTALKLKPDFPDAYCNLAHCLQ		0.48
